Experiment [1] addresses T1, Par3 PDZ3 (rat, UniProt Q9Z340 582-685). Briefly: FP.
A further experiment has as its target Par3 PDZ2 (Rattus norvegicus). Description: FP.
In the next experiment the target is Par3 PDZ3 G600,602 A (rat, UniProt Q9Z340 582-685, G600,602 A (G600A) | G600,602 A (G602A)). Briefly: FP.
In a further experiment the target is Par3 PDZ1 (rat, UniProt Q9Z340 1-1337). Description: FP.
Experiment [2] addresses T1, Par3 PDZ3. Briefly: FP; 0% 1,6-hexanediol.
The target in experiment [3] is T1, Par3 PDZ3. Briefly: FP; 5% 1,6-hexanediol.
In experiment [4] the target is T1, Par3 PDZ3. Description: FP; 10% 1,6-hexanediol.
Experiment [5] deals with T1, Par3 PDZ3. Briefly: FP; 25% 1,6-hexanediol.

Ends that are not written are not given here.

What is called Kd is the free concentration of one partner at which half of the binding sites on the other are occupied at equilibrium, for simple one-to-one binding.

T1 sequence (Q9Z340 582-685): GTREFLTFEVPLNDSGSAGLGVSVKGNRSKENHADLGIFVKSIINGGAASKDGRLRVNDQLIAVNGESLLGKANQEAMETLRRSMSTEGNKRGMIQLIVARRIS
Sequence of Par3 PDZ3 G600,602 A (Q9Z340 582-685 G600A/G602A): as the sequence (Q9Z340 582-685) above, with G19A, G21A counted along it
Sequence of Par3 PDZ1 (Q9Z340 whole entry): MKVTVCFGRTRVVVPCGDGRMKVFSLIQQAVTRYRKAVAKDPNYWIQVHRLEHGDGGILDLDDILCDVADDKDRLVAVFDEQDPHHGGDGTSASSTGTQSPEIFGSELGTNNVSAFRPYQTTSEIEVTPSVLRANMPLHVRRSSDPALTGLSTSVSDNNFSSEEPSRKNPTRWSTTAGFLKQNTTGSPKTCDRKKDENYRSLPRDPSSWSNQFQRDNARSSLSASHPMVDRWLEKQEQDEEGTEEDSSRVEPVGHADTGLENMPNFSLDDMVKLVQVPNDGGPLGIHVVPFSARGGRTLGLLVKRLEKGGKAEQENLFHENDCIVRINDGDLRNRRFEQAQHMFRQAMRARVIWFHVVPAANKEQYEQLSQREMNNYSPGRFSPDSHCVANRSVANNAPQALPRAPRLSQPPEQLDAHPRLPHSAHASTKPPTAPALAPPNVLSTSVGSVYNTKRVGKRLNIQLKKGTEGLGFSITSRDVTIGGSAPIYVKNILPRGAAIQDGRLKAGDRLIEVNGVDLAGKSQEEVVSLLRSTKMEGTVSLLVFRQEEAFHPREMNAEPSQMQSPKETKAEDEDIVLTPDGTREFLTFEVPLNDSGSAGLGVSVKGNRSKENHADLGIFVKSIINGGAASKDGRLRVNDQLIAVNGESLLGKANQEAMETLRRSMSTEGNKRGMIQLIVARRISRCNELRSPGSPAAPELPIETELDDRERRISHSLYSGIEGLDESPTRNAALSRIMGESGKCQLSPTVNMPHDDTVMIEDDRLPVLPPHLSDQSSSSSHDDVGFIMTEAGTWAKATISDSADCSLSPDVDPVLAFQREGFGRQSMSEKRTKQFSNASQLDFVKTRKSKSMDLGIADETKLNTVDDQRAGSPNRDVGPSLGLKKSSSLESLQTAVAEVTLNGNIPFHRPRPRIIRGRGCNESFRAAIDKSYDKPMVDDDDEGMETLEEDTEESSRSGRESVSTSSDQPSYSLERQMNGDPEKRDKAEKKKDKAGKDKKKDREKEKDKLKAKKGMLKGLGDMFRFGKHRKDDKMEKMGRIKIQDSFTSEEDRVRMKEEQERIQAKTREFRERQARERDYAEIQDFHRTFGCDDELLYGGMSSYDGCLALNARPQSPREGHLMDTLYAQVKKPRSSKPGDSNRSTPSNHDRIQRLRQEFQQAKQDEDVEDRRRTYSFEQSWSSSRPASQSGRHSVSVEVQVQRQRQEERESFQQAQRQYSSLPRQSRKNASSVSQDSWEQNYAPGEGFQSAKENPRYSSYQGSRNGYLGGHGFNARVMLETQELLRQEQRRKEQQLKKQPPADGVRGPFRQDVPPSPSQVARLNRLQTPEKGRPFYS
Sequence of Par3 PDZ2 (Rattus norvegicus) (chain, as listed by the source): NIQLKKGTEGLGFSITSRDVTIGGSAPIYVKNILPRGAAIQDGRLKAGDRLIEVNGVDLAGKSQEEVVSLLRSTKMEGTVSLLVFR

Regarding MRGDVSGFSL (also: FITC label, position not given here) [FITC-labeled Par6α PBM peptide], the affinity with Par3 PDZ3 [1], expressed as Kd, was 172 µM.

Consider VEEHGPAITL (also: FITC label, position not given here) [FITC-labeled Par6γ PBM peptide], for which, in the experiment with Par3 PDZ3 [1], the affinity, expressed as Kd, was 1.3 µM. This Kd lies about 130-fold lower than the previous one.

Consider LEEDGTIITL (also: FITC label, position not given here) [FITC-labeled Par6β PBM peptide], for which the Kd in the experiment with Par3 PDZ2 was determined as 161 µM; with Par3 PDZ3 [1] it was 1.1 µM; in the experiment with Par3 PDZ3 G600,602 A it was 20 µM; with Par3 PDZ1, 104 µM; with Par3 PDZ3 [2], 1.1 µM; with Par3 PDZ3 [3], 4.9 µM. The equilibrium dissociation constant (Kd) with Par3 PDZ3 [4] stood at 9.7 µM; with Par3 PDZ3 [5], 22 µM.
